Reference: PMC9673926, “Nucleotide binding as an allosteric regulatory mechanism for Akkermansia muciniphila β-N-acetylhexosaminidase Am2136” (Gut Microbes, 2022)

Substrate: CC(=O)N[C@H]1[C@H](Oc2ccc([N+](=O)[O-])cc2)O[C@H](CO)[C@@H](O)[C@@H]1O
Experiment: purified protein, by the assay type
Settings: pH 8.0; 37.0 °C

B1: R592A (Akkermansia muciniphila ATCC BAA-835; R592A) (protein)
chain: QDAKQIADSLSIPPVKAGAKQLPMPSVSGAQIKLLGADYEQLVNSKGKIAPVISDTPVNVSFKVTKDGKEAVSKDYEIMLQAPQAAQGNPKPRIIPEILQWKGGQGEYKLGNTVTIACPDKELGKLFAADMEDVLGKKVKLVAPGAKADISLSLLKGGNLGREGYRLQIARDGVRLGAAAPTGLFWGTRTLLQMLRQTPGSVPCGTAVDFPRYQLRGFMLDVARTPYPLSYLKDVIRTMAWYKMNDLHLVINNNYIFHEHYVDNGHDPFKESYAAFRLESKMKGKDGTPLTARDLFYTKKEFADLVSYARKYGVNIVPEFDTPGHALSFTRLRPDLIYKGPMNHEKRRCEMLDAANPETIDLVSKVFDEYMLKDPKLGRPVFADCGVVHVGADEFYGDKEDYRHFANAVLTHALKRGYTPRIWGSLSAKPGKTPVVSKGVQMNLWSTGWMKAWEAVNQGYDVINTNDGALYIVPFAGYYRMDRNHKGLYNNWIPNRIGNETLPSGHPQLLGGTFAVWNDETDIMHTGYAPYDIWGIISGSMDVLSQKLWGTAKAPDTFEQHRELVSSIGNAPATNPLHKWKDSQPLTVKPSSLPQKLDKPALGPNYRLTMELELTAAPEGKEQVLLAAPEGELLAVMKDGTVGFRRDDSLEFSFGAKLPVGKKVKVEIVGEPEKTSLLLDGEPAGTAVLKNFSDKSKDFSDKFKHRPKVHRSTFILPLKELGSSFQGKVFHMNVQPL
Km: 1480 ± 60 µM

B2: P595A+H597A (Akkermansia muciniphila ATCC BAA-835; H597A/P595A) (protein)
chain: QDAKQIADSLSIPPVKAGAKQLPMPSVSGAQIKLLGADYEQLVNSKGKIAPVISDTPVNVSFKVTKDGKEAVSKDYEIMLQAPQAAQGNPKPRIIPEILQWKGGQGEYKLGNTVTIACPDKELGKLFAADMEDVLGKKVKLVAPGAKADISLSLLKGGNLGREGYRLQIARDGVRLGAAAPTGLFWGTRTLLQMLRQTPGSVPCGTAVDFPRYQLRGFMLDVARTPYPLSYLKDVIRTMAWYKMNDLHLVINNNYIFHEHYVDNGHDPFKESYAAFRLESKMKGKDGTPLTARDLFYTKKEFADLVSYARKYGVNIVPEFDTPGHALSFTRLRPDLIYKGPMNHEKRRCEMLDAANPETIDLVSKVFDEYMLKDPKLGRPVFADCGVVHVGADEFYGDKEDYRHFANAVLTHALKRGYTPRIWGSLSAKPGKTPVVSKGVQMNLWSTGWMKAWEAVNQGYDVINTNDGALYIVPFAGYYRMDRNHKGLYNNWIPNRIGNETLPSGHPQLLGGTFAVWNDETDIMHTGYAPYDIWGIISGSMDVLSQKLWGTAKAPDTFEQHRELVSSIGNAPRTNALAKWKDSQPLTVKPSSLPQKLDKPALGPNYRLTMELELTAAPEGKEQVLLAAPEGELLAVMKDGTVGFRRDDSLEFSFGAKLPVGKKVKVEIVGEPEKTSLLLDGEPAGTAVLKNFSDKSKDFSDKFKHRPKVHRSTFILPLKELGSSFQGKVFHMNVQPL
Km: 1580 ± 70 µM
